Square brackets hold non-standard residues; d marks the D form. Ends that are not written are not given here. sY = N[C@@H](Cc1ccc(OS(=O)(=O)O)cc1)C(=O)O
T1: canine parietal cell gastrin receptor (recombinant, expressed from clone GR-1 in COS-7 cells) (canine)
T1 chain: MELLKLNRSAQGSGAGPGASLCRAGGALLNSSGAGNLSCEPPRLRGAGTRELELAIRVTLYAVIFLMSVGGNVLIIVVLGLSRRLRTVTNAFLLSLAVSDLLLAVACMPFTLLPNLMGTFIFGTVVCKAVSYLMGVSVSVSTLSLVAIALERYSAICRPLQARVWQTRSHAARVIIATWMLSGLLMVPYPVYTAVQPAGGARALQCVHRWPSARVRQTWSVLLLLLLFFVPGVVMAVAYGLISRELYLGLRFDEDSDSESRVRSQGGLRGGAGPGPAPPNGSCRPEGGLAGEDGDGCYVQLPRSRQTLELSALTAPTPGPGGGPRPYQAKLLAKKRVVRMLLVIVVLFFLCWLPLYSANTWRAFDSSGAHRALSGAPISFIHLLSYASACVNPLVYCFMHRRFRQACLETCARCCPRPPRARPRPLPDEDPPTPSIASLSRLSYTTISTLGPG


How the values were obtained:
[1] = biological target: T1, canine parietal cell gastrin receptor …; assay: competition with 125I-CCK-8 on isolated membranes of GR-1 transfected COS-7 cells, filtration
Protocol: Binding parameters were also measured in isolated plasma membranes from COS-7 cells transfected with GR-1. Binding was performed for 60 min at 22° C.

[2] = biological target: T1, canine parietal cell gastrin receptor …; assay: competition with 40 pM 125I-CCK-8 on intact GR-1 transfected COS-7 cells
Protocol: (§1) COS-7 cells (1.5 ×10^6) were plated in 10 cm culture dishes (Nunc) and grown in DMEM/10% fetal calf serum, 5% CO_2 at 37° C. […] Twenty-four hours following transfection, cells were split into 24-well dishes (Nunc), 5000 cells/well. […] Equilibrium binding occurred after incubation for 80 min at 37° C. Cell monolayers were subsequently washed three times and bound radioactivity was quantified after cell hydrolysis in 1N NaOH.

[3] = biological target: canine parietal cell gastrin receptor (recombinant, expressed from clone GR-1 in COS-7 cells) (canine)
[4] = biological target: canine parietal cell gastrin receptor (recombinant, expressed from clone GR-1 in COS-7 cells) (canine); remark: listed apart in the source
[5] = biological target: T1, canine parietal cell gastrin receptor …; assay: radioligand saturation binding, 2.5 to 1,000 pM 125I-CCK-8, GR-1 transfected COS-7 cells
Protocol: as §1

| Binder | IC50 [1] [nM] | IC50 [2] [nM] | free cytosolic calcium, [Ca2+] (fura-2 fluorescence) [3] [nM] | phosphoinositide metabolites (Ins-1,4,5-P3, Ins-1,3,4,5-P4) by HPLC (% over control) [4] | Kd [5] [nM] |
| --- | --- | --- | --- | --- | --- |
| DYMGWMDF-NH2 [CCK-8-desulfate] | 1.5 | – | – | – | – |
| DYMGWMDF (ends and bridges not checked; also: 125I label, site not given here) [125I-CCK-8] | – | – | – | – | 0.08 |

More lines, in order of falling IC50 [1], values ahead:

| IC50 [1] [nM] | IC50 [2] [nM] | free cytosolic calcium, [Ca2+] (fura-2 fluorescence) [3] [nM] | phosphoinositide metabolites (Ins-1,4,5-P3, Ins-1,3,4,5-P4) by HPLC (% over control) [4] | Kd [5] [nM] | Binder |
| --- | --- | --- | --- | --- | --- |
| 0.4 | 0.26 | 142 | 741 | – | QGPWLEEEEEAYGWMDF-NH2 (ends and bridges not checked) [gastrin I] |
| 0.08 | 0.09 | – | – | – | D[sY]MGWMDF-NH2 [CCK-8 (unlabeled)] |

Source: patent US5541071 (New England Medical Center Hospitals, Inc., dated 1996)
